Source: patent US20240124605A1 (published 2024)

Tests used:
[1] = molecular target: T1, CD123-Fc (Sino Biological) (human, UniProt P26951 19-305); assay: ELISA of MBP fusions for binding to CD123 (FIG. 3)
T1 construct: Bought reagent; not shown: Fc of the bought fusion (detected with anti-human Fc, captured on AHC sensor)
T1 sequence: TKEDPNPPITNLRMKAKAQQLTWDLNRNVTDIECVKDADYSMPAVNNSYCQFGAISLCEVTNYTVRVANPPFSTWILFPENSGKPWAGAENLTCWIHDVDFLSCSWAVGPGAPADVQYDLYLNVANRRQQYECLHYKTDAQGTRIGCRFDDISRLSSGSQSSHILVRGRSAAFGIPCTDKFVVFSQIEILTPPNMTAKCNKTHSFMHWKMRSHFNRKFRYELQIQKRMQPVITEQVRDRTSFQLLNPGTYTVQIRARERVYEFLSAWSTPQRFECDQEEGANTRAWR
Protocol: (§1) Parent and mutated variant D domains were expressed as MBP fusions in E. coli (T7 Express, New England Biolabs) by either IPTG (isopropylthio-(3-galactoside) induction for 4 hours at 37° C. in Luria broth containing antibiotics and 0.2% glucose or through auto-induction for 16 hours at 30° C. using MagicMedia (Life Technologies). Post induction, cells were pelleted, washed and resuspended in “leak-out buffer” comprising 200 mM Tris pH 7.5 and 20 mM EDTA. After incubation at 30° C. for 16 hours, supernatant containing MBP fusion proteins were assayed by ELISA for both target binding and expression. Supernatants were added to 96-well Immulon 4HBX microtiter plates coated with anti-MBP polyclonal antibody (Abcam) at 0.0032 ug/ml. Followed by washing, bound MBP fusion proteins were detected either with CD123-Fc (Sino Biological)+anti-human Fc HRP (Abcam) to assess CD123 binding, or with anti-MBP-HRP (New England Biolabs) to assess MBP fusion protein expression.

[2] = molecular target: T2, CD123 expressed on the surface of cells (OCI-AML2, MOLM13, NALM6-CD123+) (human, UniProt P26951 19-378); assay: flow cytometry
T2 chain: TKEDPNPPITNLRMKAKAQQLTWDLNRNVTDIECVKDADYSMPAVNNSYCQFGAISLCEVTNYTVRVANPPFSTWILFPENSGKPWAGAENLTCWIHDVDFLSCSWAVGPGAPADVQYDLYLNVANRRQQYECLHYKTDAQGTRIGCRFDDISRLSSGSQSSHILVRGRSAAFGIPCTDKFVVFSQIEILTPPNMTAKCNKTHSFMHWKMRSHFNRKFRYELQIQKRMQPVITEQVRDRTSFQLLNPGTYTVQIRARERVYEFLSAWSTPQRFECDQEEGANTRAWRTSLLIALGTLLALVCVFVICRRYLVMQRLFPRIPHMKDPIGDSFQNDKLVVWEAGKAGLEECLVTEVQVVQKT

[3] = molecular target: T1, CD123-Fc (Sino Biological); assay: BLI (Octet), CD123-Fc captured on AHC sensor, Adapter 500-0.69 nM in solution, global 1:1 fit, 25 C
Protocol: To assess the kinetics of CD123 binding, Adapter proteins comprising the D domains were analyzed using Bio-Layer Interferometry (BLI). Adapter proteins comprising a CD123-binding D domain and a P26(Q26-V229) AFP polypeptide (SEQ ID NO: 39) were generated through transient transfection of HEK-293 cells, followed by Ni-Sepharose Excel (Cytiva) and SEC chromatography. BLI experiments were performed using an Octet RED386 (Sartorius). All experiments were performed at 25° C. in kinetic buffer (PBS, 0.1% BSA, 0.02% tween 20) under constant 1000 rpm agitation. CD123-Fc (20 nM) was captured on an AHC sensor (Sartorius) for 250 seconds to a loading density of ˜0.8 nm. […] The surface was regenerated by 3 rounds of 10 seconds of 10 mM Glycine pH 1.5, followed by kinetic buffer. The data was analyzed using a global fit with a 1:1 interaction model from Sartorius Octet Analysis studio.

[4] = molecular target: T1, CD123-Fc (Sino Biological); assay: method not stated in the sentence (BLI of Adapters follows)
[5] = molecular target: T1, CD123-Fc (Sino Biological); assay: ELISA of MBP fusions normalized for protein concentration, serial dilution
Protocol: as §1

B1: 5S5W D domain as MBP fusion (designed binder, not shown: large carriers)
chain: MGSWSEFNMRLDAIYERLTALGGSEAELAAFEKEIAAFESELQAYKGKGNPEVEWLRHSAARIRLELQAYRHN
binding result [1]: binds

B2: Adapter protein comprising the 6T1D D domain and a P26(Q26-V229) AFP polypeptide (designed binder)
chain: MGSWDEFGRRLYAIEWQLYALGGTEAELAAFEKEIAAFESELQAYKGKGNPEVEKLREIAAVIRENLQAYRHNQESQALAKRSCGLFQKLGEYYLQNAFLVAYTKKAPQLTSSELMAITRKMAATAATCCQLSEDKLLACGEGAADIIIGHLCIRHEMTPVNPGVGQCCTSSYANRRPCFSSLVVDETYVPPAFSDDKFIFHKDLCQAQGVALQTMKQEFLINLVKQKPQITEEQLEAVIADFSGLLEKCCQGQEQEVCFAEEGQKLISKTRAALGV
notes: also called parental D domain (6T1D); not shown: His tag (purified on Ni-Sepharose)
EC50 [2]: 2.61 µg/mL | Kd [3]: 7.6 nM | koff [3]: 0.00105 s⁻¹ | kon [3]: 139000 M⁻¹ s⁻¹

B3: Adapter protein comprising the 8O3S D domain and a P26(Q26-V229) AFP polypeptide (designed binder)
chain: MGSWDEFGRRLYAIETQLYALGGTEAELAAFEKEIAAFESELQAYKGKGNPEVEKLREIAAVIRENLQAYRHNQESQALAKRSCGLFQKLGEYYLQNAFLVAYTKKAPQLTSSELMAITRKMAATAATCCQLSEDKLLACGEGAADIIIGHLCIRHEMTPVNPGVGQCCTSSYANRRPCFSSLVVDETYVPPAFSDDKFIFHKDLCQAQGVALQTMKQEFLINLVKQKPQITEEQLEAVIADFSGLLEKCCQGQEQEVCFAEEGQKLISKTRAALGV
notes: also called 6T1D(W16T); not shown: His tag (purified on Ni-Sepharose)
EC50 [2]: 4.62 µg/mL | Kd [3]: 28 nM | koff [3]: 0.00665 s⁻¹ | kon [3]: 235000 M⁻¹ s⁻¹

B4: Adapter protein comprising the 1F9I D domain and a P26(Q26-V229) AFP polypeptide (designed binder)
chain: MGSWDEFGRRLYAIEWQLYAQGGTEAELAAFEKEIAAFESELQAYKGKGNPEVEKLRELAAVIRENLQAYRHNQESQALAKRSCGLFQKLGEYYLQNAFLVAYTKKAPQLTSSELMAITRKMAATAATCCQLSEDKLLACGEGAADIIIGHLCIRHEMTPVNPGVGQCCTSSYANRRPCFSSLVVDETYVPPAFSDDKFIFHKDLCQAQGVALQTMKQEFLINLVKQKPQITEEQLEAVIADFSGLLEKCCQGQEQEVCFAEEGQKLISKTRAALGV
notes: also called 6T1D(L21Q, I59L); not shown: His tag (purified on Ni-Sepharose)
Kd [3]: 7.6 nM | koff [3]: 0.000646 s⁻¹ | kon [3]: 85200 M⁻¹ s⁻¹

B5: Adapter protein comprising the 5B1Q D domain and a P26(Q26-V229) AFP polypeptide (designed binder)
chain: MGSWDEFSRRLYAIEWQLYAQGGTEAELAAFEKEIAAFESELQAYKGEGSPEVEKLRELAAVIRENLQAYRHNQESQALAKRSCGLFQKLGEYYLQNAFLVAYTKKAPQLTSSELMAITRKMAATAATCCQLSEDKLLACGEGAADIIIGHLCIRHEMTPVNPGVGQCCTSSYANRRPCFSSLVVDETYVPPAFSDDKFIFHKDLCQAQGVALQTMKQEFLINLVKQKPQITEEQLEAVIADFSGLLEKCCQGQEQEVCFAEEGQKLISKTRAALGV
notes: also called 6T1D(G8S, L21Q, K48E, N50S, I59L); not shown: His tag (purified on Ni-Sepharose)
EC50 [2]: 3.22 µg/mL | fold enhancement of affinity over that of 6T1D [4]: ~10 fold | Kd [3]: 0.73 nM | koff [3]: 0.000136 s⁻¹ | kon [3]: 187000 M⁻¹ s⁻¹

B6: Adapter protein comprising the 4I0K D domain and a P26(Q26-V229) AFP polypeptide (designed binder)
chain: MGSWDEFGRRLYAIESQLYALGGTEAELAAFEKEIAAFESELQAYKGKGNPEVEKLREIAAVIRENLQAYRHNQESQALAKRSCGLFQKLGEYYLQNAFLVAYTKKAPQLTSSELMAITRKMAATAATCCQLSEDKLLACGEGAADIIIGHLCIRHEMTPVNPGVGQCCTSSYANRRPCFSSLVVDETYVPPAFSDDKFIFHKDLCQAQGVALQTMKQEFLINLVKQKPQITEEQLEAVIADFSGLLEKCCQGQEQEVCFAEEGQKLISKTRAALGV
notes: also called 6T1D(W16S); not shown: His tag (purified on Ni-Sepharose)
EC50 [2]: 4.26 µg/mL | Kd [3]: 14 nM | koff [3]: 0.00252 s⁻¹ | kon [3]: 177000 M⁻¹ s⁻¹

B7: Adapter protein comprising the 3F4N D domain and a P26(Q26-V229) AFP polypeptide (designed binder)
chain: MGSWDEFGRRLYAIEWQLYALGGTEAELAAFEKEIAAFESELQAYKGKGSPEVEKLREIAAVIRENLQAYRHNQESQALAKRSCGLFQKLGEYYLQNAFLVAYTKKAPQLTSSELMAITRKMAATAATCCQLSEDKLLACGEGAADIIIGHLCIRHEMTPVNPGVGQCCTSSYANRRPCFSSLVVDETYVPPAFSDDKFIFHKDLCQAQGVALQTMKQEFLINLVKQKPQITEEQLEAVIADFSGLLEKCCQGQEQEVCFAEEGQKLISKTRAALGV
notes: also called 6T1D(N50S); not shown: His tag (purified on Ni-Sepharose)
EC50 [2]: 1.83 µg/mL | Kd [3]: 1.3 nM | koff [3]: 0.000275 s⁻¹ | kon [3]: 213000 M⁻¹ s⁻¹

B8: Adapter protein comprising the 8W9C D domain and a P26(Q26-V229) AFP polypeptide (designed binder)
chain: MGSWDEFGRRLYAIEWRLYALGGSEAELAAFEKEIAAFESELQAYKGKGNPEVEKLREIAAVIRSNLQAYRHNQESQALAKRSCGLFQKLGEYYLQNAFLVAYTKKAPQLTSSELMAITRKMAATAATCCQLSEDKLLACGEGAADIIIGHLCIRHEMTPVNPGVGQCCTSSYANRRPCFSSLVVDETYVPPAFSDDKFIFHKDLCQAQGVALQTMKQEFLINLVKQKPQITEEQLEAVIADFSGLLEKCCQGQEQEVCFAEEGQKLISKTRAALGV
notes: also called wild type; not shown: His tag (purified on Ni-Sepharose)
Kd [3]: 5.2 nM | koff [3]: 0.000924 s⁻¹ | kon [3]: 177000 M⁻¹ s⁻¹

B9: Adapter protein comprising the 6K4C D domain and a P26(Q26-V229) AFP polypeptide (designed binder)
chain: MGSWAEFGRRLYAIEWQLYALGGTEAELAAFEKEIAAFESELQAYKGKGNPEVEKLREIAAVIRENLQAYRHNQESQALAKRSCGLFQKLGEYYLQNAFLVAYTKKAPQLTSSELMAITRKMAATAATCCQLSEDKLLACGEGAADIIIGHLCIRHEMTPVNPGVGQCCTSSYANRRPCFSSLVVDETYVPPAFSDDKFIFHKDLCQAQGVALQTMKQEFLINLVKQKPQITEEQLEAVIADFSGLLEKCCQGQEQEVCFAEEGQKLISKTRAALGV
notes: also called 6T1D(D5A); not shown: His tag (purified on Ni-Sepharose)
Kd [3]: 18 nM | koff [3]: 0.00353 s⁻¹ | kon [3]: 197000 M⁻¹ s⁻¹

B10: Adapter protein comprising the 4R8U D domain and a P26(Q26-V229) AFP polypeptide (designed binder)
chain: MGSWDEFGRRLYAIEWQLYALGGTEAELAAFEKEIAAFESELQAYKGEGSPEVEKLREIAAVIRENLQAYRHNQESQALAKRSCGLFQKLGEYYLQNAFLVAYTKKAPQLTSSELMAITRKMAATAATCCQLSEDKLLACGEGAADIIIGHLCIRHEMTPVNPGVGQCCTSSYANRRPCFSSLVVDETYVPPAFSDDKFIFHKDLCQAQGVALQTMKQEFLINLVKQKPQITEEQLEAVIADFSGLLEKCCQGQEQEVCFAEEGQKLISKTRAALGV
notes: also called 6T1D(K48E, N50S); not shown: His tag (purified on Ni-Sepharose)
EC50 [2]: 1.9 µg/mL | Kd [3]: 1.2 nM | koff [3]: 0.000304 s⁻¹ | kon [3]: 254000 M⁻¹ s⁻¹

B11: Adapter protein comprising the 0C8S D domain and a P26(Q26-V229) AFP polypeptide (designed binder)
chain: MGSWDEFSRRLYAIEWQLYALGGTEAELAAFEKEIAAFESELQAYKGEGSPEVEKLRELAAVIRENLQAYRHNQESQALAKRSCGLFQKLGEYYLQNAFLVAYTKKAPQLTSSELMAITRKMAATAATCCQLSEDKLLACGEGAADIIIGHLCIRHEMTPVNPGVGQCCTSSYANRRPCFSSLVVDETYVPPAFSDDKFIFHKDLCQAQGVALQTMKQEFLINLVKQKPQITEEQLEAVIADFSGLLEKCCQGQEQEVCFAEEGQKLISKTRAALGV
notes: also called 0085; 6T1D(G8S, K48E, N50S, I59L); not shown: His tag (purified on Ni-Sepharose)
EC50 [2]: 2.44 µg/mL | Kd [3]: 1 nM | koff [3]: 0.000151 s⁻¹ | kon [3]: 146000 M⁻¹ s⁻¹

B12: 1J1K D domain as MBP fusion (designed binder, not shown: large carriers; small tags and cut ends)
chain: MGSWDEFSRRLYAIEWRLYALGGSEAELAAFEKEIAAFESELQAYKGKGNPEVEKLREIAAVIRSNLQAYRHN
notes: also called 8W9C (G8S)
binding result [5]: binds

B13: 6Z5E D domain as MBP fusion (designed binder, not shown: large carriers; small tags and cut ends)
chain: MGSWDEFGRRLYAIEWRLYALGGSEAELAAFEKEIAAFESELQAYKGKGSPEVEKLREIAAVIRSNLQAYRHN
notes: also called 8W9C (N50S)
binding result [5]: binds

B14: 4H2H D domain as MBP fusion (designed binder, not shown: large carriers; small tags and cut ends)
chain: MGSWDEFGRRLYAIEWRLYALGGSEAELAAFEKEIAAFESELQAYKGIGNPEVENLREIAAVIRSNLQAYRHN
notes: also called 8W9C (K48I, K55N)
binding result [5]: binds
